# Measured values from patent US20160272953A1, “Activated Sugars” (ZuChem, Inc., priority 2010, published 2016).
# B1: P. furiousus: Pyrococcus furiosus wild-type sugar-1-kinase (SEQ ID NO:10) (protein, listed as Pyrococcus furiosus)
# chain: MSKITVKSPGRVNLIGEHTDYTYGYVMPMAIDLYTIITAEKYDKVQLYSEHFNEEKTFTLDNLTKEGSWIDYVKGVLWVLIQEGYKIGGLKGKITGDLPLGAGLSSSASFEVGILEVLNQLYNLNIDPLKKALLAKKAENEFVGVPCGILDQFAVVFGKKDNVIFLDTQTLQYEYIPFPKDVSVLVFYTGVKRELASSEYAERKRIAEESLRILGKESSKEVTEKDLGKLPPLHRKFFSYIVRENARVLEVRDALKEGDIEKVGKILTTAHWDLAENYRVSCEELDFFVKKAMELGAYGARLTGAGFGGSAIALVDKDKAKTIGDAILREYLAKFSWKAKYFVVKPSDGVGV
# B2: S. thermophilus: Streptococcus thermophilus wild-type sugar-1-kinase (SEQ ID NO:8) (protein, listed as Streptococcus thermophilus)
# chain: MNTSQLREKFKEVFGVEADHTFFSPGRINLIGEHTDYNGGNVLPVAITLGTYGAARKRDDKVLRFFSANFEEKGIIEVPLENLRFEKEHNWTNYPKGVLHFLQEAGHTIDSGMDIYIYGNIPNGSGLSSSSSLELLIGVIVEKLYDIKLERLDLVKIGKQTENDFIGVNSGIMDQFAIGMGADQCAIYLDTNTLKYDLVPLDLKDNVVVIMNTNKRRELADSKYNERRAECETAVSELQEKLDIQTLGELDFLTFDAYSYLIKDENRIKRARHVVLENQRTLQARKALEAGDLEGFGRLMNASHVSLEYDYEVTGLELDTLAHTAWEQEGVLGARMTGAGFGGCAIALVNKDKVEDFKKAVGQRYEEVVGYAPSFYIAEVTGGSRVLD
# B3: T. thermophilus: Thermus thermophilus wild-type sugar-1-kinase (SEQ ID NO:9) (protein, listed as Thermus thermophilus)
# chain: MGFQEVYGVLPQASAQAPGRVNLLGEHTDYQEGYVLPTPIPYFTRVEAAPLEGAVEAFSENLGELRARPLSSPPQGDFLDYLLGVVRALREAGHEVAGARFYVRSDLPMGAGLSSSAALEVAALRALRTLYRLPLSDLEVARLAQKAEVEYVGVRCGIMDQMAASLGQPGQALFLDTRTLAYENLPLPPGVRVAVLDLGLGRRLAEAGYNRRRQEAEEAAKRLGVRSLRDVADLCLVESLPSPLDRRARHVVSENLRVLRGVEALRRGDARAFGELMTQSHRSLAQDYEVNLPELDALVEEALRAGAYGAKLTGAGFGGAVVALVAESRFPAFREALARRFPDLKVL
# Test: Sugar kinase activity of cell lysates with D-galactose at 37, 45, 55° C. (DNS assay)
# Type: biochemical
# Details: 8 mM D-galactose; 37, 45 and 55° C.
# From the text: The formation of a phosphorylated sugar by kinase activity can be monitored by a number of methods. One method for detecting sugar-1-kinase activity is the 3,5-dinitrosalicylic acid (DNS) assay. This assay exploits the fact that reducing sugars can reduce compounds such as 3,5-dinitrosalicylic acid, which undergo a color change upon reduction. This assay can be used for sugar-1-kinases since the product of their reaction (sugar-1-phosphate) no longer has the ability to reduce DNS. Therefore, when the reaction is complete no color change occurs when incubated with DNS and the result is a yellow color. However, when reducing sugar remains, the result is reduction of DNS and red/brown color. This assay is furthermore concentration dependent providing a linear color change from 0.1 to 10 mM reducing sugar.
# The sugar kinase proteins were expressed recombinantly in E. coli induced with 0.5mM IPTG and partially purified cell lysates were then assayed (100 μL) with 400 μmM ATP, 3.5 mM Mg^2+, and 8 mM D-galactose at three different temperatures, 37, 45, and 55° C. […] A negative control was treated similarly and consisted of the host strain with empty plasmid.
row,Molecule,activity in partially purified cell extract
1,B1,more active at temperatures higher than 37 °C
2,B2,most activity
3,B3,more active at temperatures higher than 37 °C
